{
  "source": "paper PMC5089669",
  "about": "“Biocatalytic Properties and Structural Analysis of Eugenol Oxidase from Rhodococcus jostii RHA1: A Versatile Oxidative Biocatalyst” (Chembiochem, 2016)",
  "target": "the molecule itself",
  "assay": "crystal structure; sitting-drop vapour diffusion at 20 °C; EUGO 15 mg/mL in 10 mM Tris-HCl pH 7.5 with 24 % PEG6000, 0.1 M Tris-HCl pH 8.0; crystals soaked with isoeugenol; two subunits in the asymmetric unit",
  "data": [
    {"protein": "Eugenol oxidase (EUGO) from Rhodococcus jostii RHA1 (enzyme, UniProt Q0SBK1 1-526, looked up, FAD covalently bound: bond between His390 and the C8M atom of the flavin ring, eugenol oxidase (EUGO), flavoprotein oxidase of the VAO family, Rhodococcus jostii RHA1; source: E. coli culture) MTRTLPPGVSDERFDAALQRFRDVVGDKWVLSTADELEAFRDPYPVGAAEANLPSAVVSPESTEQVQDIVRIANEYGIPLSPVSTGKNNGYGGAAPRLSGSVIVKTGERMNRILEVNEKYGYALLEPGVTYFDLYEYLQSHDSGLMLDCPDLGWGSVVGNTLDRGVGYTPYGDHFMWQTGLEVVLPQGEVMRTGMGALPGSDAWQLFPYGFGPFPDGMFTQSNLGIVTKMGIALMQRPPASQSFLITFDKEEDLEQIVDIMLPLRINMAPLQNVPVLRNIFMDAAAVSKRTEWFDGDGPMPAEAIERMKKDLDLGFWNFYGTLYGPPPLIEMYYGMIKEAFGKIPGARFFTHEERDDRGGHVLQDRHKINNGIPSLDELQLLDWVPNGGHIGFSPVSAPDGREAMKQFEMVRNRANEYNKDYAAQFIIGLREMHHVCLFIYDTAIPEAREEILQMTKVLVREAAEAGYGEYRTHNALMDDVMATFNWGDGALLKFHEKIKDALDPNGIIAPGKSGIWSQRFRGQNL", "values": [
      {"measurement": "stoichiometry N", "value": 2}
    ]}
  ]
}
